Data on 41 sequences can be found in the nanobody polyreactivity screen of Harvey et al. (2022).

A short description of the series: yeast display, Sf9 membrane polyspecificity reagent, FACS + sequencing; frameworks hold sequencing errors. In outline:
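In a synthetic yeast display library (Saccharomyces cerevisiae BJ5465), nanobody expression was induced with galactose for 36–48 hours. FACS gates were set low and high (top ~1%) using anti-HA fluorescence for expression and streptavidin fluorescence for binding of the Sf9 membrane reagent. Each polyreactivity label is drawn from the gate of origin.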
With “QVQLQESGGGLVQAGGSLRLSCAASGSNFDTPTMGWYRQAPGKERELVASIAYDDNTYYADSVKGRFTISRYNAKNTVYLQMNSLKPGETAVYYCAVTDRIYYYFVYWGQGTRVTVSS”, the “polyreactivity (PSR sort gate)” value is given as “high polyreactivity”.

With “QVQLQESGGGLVQAGGSLRLSCAASGTFSPLPAMGWYRQAPGKERECVAGNDTGAITNYADSVKGRFTISRDNAKNTVYLQMNSLKPDDTAVYYCAVFPAAYVYYVRYYTYWGQGTQVTVCS”, the “polyreactivity (PSR sort gate)” value is “low polyreactivity”.

For the sequence “QVQLQESGGGLVQAGGSLRLSCAASGTIFRFRYMGWHRQAPGKERELVAGINGGTTTYYADSVIGRFTISRDNAKNTVYLQMNSLKPEDTAVYYCAADVNYYQHRLYYWGQGTQVTVSS”, the “polyreactivity (PSR sort gate)” value is reported as “low polyreactivity”.

Take “QVQLQESGGGLVQAGGSLRLSCAASGTIFRISDMGSYRQAPGKDLEFVAAITYGANTYYADSGKGRFTISRDNAKNTVYLQMNSLKPEDTAVYYCAVPPVKETILDYWGQGTQVTVSS”: the “polyreactivity (PSR sort gate)” value was “low polyreactivity”.

“QVQLQESGGGLVQAGGSLRLSCAASGTIFTARFMGWYRQAPGKERELVATITDGGNTNHADSVKGRFTISRDNAKNTVYLQMNSLKPEDAAVDYCAAGEVDNDTLLYWGQGSQVTVSS”: the “polyreactivity (PSR sort gate)” value is given as “low polyreactivity”.

For the sequence “QVQLQESGGGLVQAGGSLRLSCAASGTIFWLWAMGWYCQAPGKERELVASISSGGTTYHADSVKGRFTISRDNAKNTVYLQMNSLKPEDTAVYYSAAFYVATAKLGFWGQGSQVTVSS”, the “polyreactivity (PSR sort gate)” value was “low polyreactivity”.

For “QVQLQESGGGLVQAGGSLRLSCAASGTISDSGLMGWYRQAPGKERELVAGISSGGITNYADSVKGRFTISRDNAKNTVYLQMKSLKPEDTAVYWGQGTQVTVSS”, the “polyreactivity (PSR sort gate)” value is reported as “low polyreactivity”.

As for “QVQLQESGGGLVQAGGSLRLSCAASGTISDSGLMGWYRQAPGKERELVAGISSGGITNYADSVKGRFTISRDNAKNTVYMQMNSLKPEDTAVYWGQGSQVTVSS”, the “polyreactivity (PSR sort gate)” value is on record as “low polyreactivity”.

Take “QVQLQESGGGLVQAGGSLRLSCAASGTISPLPAMGWYRQAPGKEREFVAGIDTGAITNYADSVKGRFTISRDNAKNTVYLQMISLKPEDTAVYYCAVFPAAYYYYERFYTYWGQGTQVTVSS”: the “polyreactivity (PSR sort gate)” value is listed as “low polyreactivity”.

As to “QVQLQESGGGLVQAGGSLRLSCAASGTISPLPAMGWYRQAPGKEREFVAGIDTGAITNYADSVKGRFTISRDNAKNTVYLQMNSLKPEDTPVYYCAATFYYSGHDDYWGQGTQVPVSS”, the “polyreactivity (PSR sort gate)” value is recorded as “low polyreactivity”.

Consider “QVQLQESGGGLVQAGGSLRLSCAASGTISQEDWMGLYRQAPGKEREFVAAIGLGSNTNYADSLKGRFTISRDNAKNTVYLQMNSLKPEDTAVYYCAVSVWQYSDHVYRGQGTQVTVSS”, for which the “polyreactivity (PSR sort gate)” value is “low polyreactivity”.

“QVQLQESGGGLVQAGGSLRLSCAASGTITVLYKMGWFRQAPGKEREFVASINYGTSTYYADSVKGRFTVSRDSAKNTVYLQMNSLKPEDTAVYFCSAAFRWQDVYRYWGQGTQVTVSS”: the “polyreactivity (PSR sort gate)” value was “low polyreactivity”.

Turning to “QVQLQESGGGLVQAGGSLRLSCAASGYIFPTAIMGWYLQATGKERKLVAAINPGSNTYYADSVKGRFTFSRDNAKNTVYLQMYSLKPEDAAVYYCAVSIWLEGTLDYWGQGTQVTVSS”, the “polyreactivity (PSR sort gate)” value is reported as “low polyreactivity”.

As to “QVQLQESGGGLVQAGGSLRLSCAASGYIPLAQTIGSYRQAPGKEREFVASIALGSSTYYTDSVKGSFTISRDNAKTTVYLQMNSLKPEDTAVYYCAARVGACYAHDYWGQGTQVTVSS”, the “polyreactivity (PSR sort gate)” value is “low polyreactivity”.

As to “QVQLQESGGGLVQAGGSLRLSCAASGYISDGYVMGWYRQAPGKEREFVATISGGTTAYYADSVKGRFTISRDNAKNTVYLQMNSLKPEDTAVYYCAAETSYYWDYDYWGHGTQVTVSS”, the “polyreactivity (PSR sort gate)” value is “high polyreactivity”.

Turning to “QVQLQESGGGLVQAGGSLRLSCAASGYISHADEMGWYRQAPGKVHELVASISNGGSTNYADSVKGRFTISRDNAKNTVYLQMNSLKSEDTAVYYCAAWTGQVDIHYYWGQGTQVTVSS”, the “polyreactivity (PSR sort gate)” value is “low polyreactivity”.

With “QVQLQESGGGLVQAGGSLRLSCAASGYISLAQTIGWYRQAPGTEREFVASIALGSSTYYTDSVKGSFTISRDNAKTTVYLQMNSLKPEDTAVYYCAARVGASYAHDYWGQGTQVTVSS”, the “polyreactivity (PSR sort gate)” value was “low polyreactivity”.

For the sequence “QVQLQESGGGLVQAGGSLRLSCAASGYISLAQTKGWYRQEPGKEREFVASIALGSSTYYTDSVKGSFTISRDNAKTTVYLQMNSVKPEDTAVYYCAARVGASYAHDFWGQGTQVTVSS”, the “polyreactivity (PSR sort gate)” value is on record as “low polyreactivity”.

As for “QVQLQESGGGLVQAGGSLRLSCAASGYISQSSVMGWYRQAPGKEREFVASISYGATTYYADSVKGRFTISRDNAKNTVYLQTNSPKPEDTAVYYCAVWVKRGFSHRYWGQGTQVTVSS”, the “polyreactivity (PSR sort gate)” value is listed as “high polyreactivity”.

On to “QVQLQESGGGLVQAGGSLRLSCAASGYISSWYPKGWYRQAPGQEREFVATIAPGATTYYADSVKGRFTMSRDYAKNTVYLQMNSLKPEDTAVYYCAAGPENNDFYSYWGQGTQVTVSS”, for which the “polyreactivity (PSR sort gate)” value is “low polyreactivity”.

In the case of “QVQLQESGGGLVQAGGSLRLSCAASGYNSFSGYMGRYRQAPGKEREFVDSITPGRSTYYADSVKGRFTISRDNAEITVYLQMNSLKPEDTGVYYCAADDSRTEQHDYWGQGTQVTVSS”, the “polyreactivity (PSR sort gate)” value is given as “high polyreactivity”.

Regarding “QVQLQESGGGLVQAGGSLRLSCAASGYNSHADEMGWYRQAPGKEHELVASISNGGSTNYADSVKGRFTISRDNANNTVYLQMNSLKSEDTAVYYCADWTGEVDIHYYWGQGTQVTVSS”, the “polyreactivity (PSR sort gate)” value was “low polyreactivity”.

For “QVQLQESGGGLVQAGGSLRLSCAATGSIYHLHIMCWYRKAPGKERESVAAISYGTSTYYADSVKGRFTICRDNAKNTVYLQMNSPKPDDTAVYYCAALFLVYKHHHYWGEGTQVTVSS”, the “polyreactivity (PSR sort gate)” value was “low polyreactivity”.

As for “QVQLQESGGGLVQAGGSLRLSCAPSGTITVLYKMGWFRQAPGKEGEFVASINYGTSTYYADSVKGRFTVSRDRAKNTVYLQMNSLKPEDTAVYYCAAAYRWQDVYRYWGQGTQVTVSS”, the “polyreactivity (PSR sort gate)” value is recorded as “low polyreactivity”.

“QVQLQESGGGLVQAGGSLRLSCASSGSIFKVVDKGLYRQAPAKEREFVATIGEGGNTYYADSVKGRFTISRDNAKNTVYLQMNSLKPEDTAVYFYAVVLGTSYRYTYWGQGTQVTVSS”: the “polyreactivity (PSR sort gate)” value is reported as “low polyreactivity”.

For the sequence “QVQLQESGGGLVQAGGSLRLSCAVSGTIFFPQDKGWYRQAPGREREYGAAIAEGTSTYYADSVKGRFTISRDNAKNTVYPQMYSLKPEDTEVNYCAAYRSTPQQFLYWGQGTQVTVSS”, the “polyreactivity (PSR sort gate)” value was “high polyreactivity”.

On to “QVQLQESGGGLVQAGGSLRLTCAASGNISVTGFMGCYRQAPGKERELVASIGIGGTTYYADSVKGRFSISRDNAKNTVYLEMHSLKPEDTAVYYCAARYLYYAYSYWGQGTQVTVSS”, for which the “polyreactivity (PSR sort gate)” value was “low polyreactivity”.

Regarding “QVQLQESGGGLVQAGGSLRLTCAASGSIFDGFNMGWYRQAPGKDREFVDAISYGASTYYADSVKGRFTVSRDNAINSVYLQMNSLKPEDTALYYWAVYDELYHVLVYWGRGTQVTVSS”, the “polyreactivity (PSR sort gate)” value is listed as “low polyreactivity”.

For “QVQLQESGGGLVQAGGSLRLTCAASGTIFRFRYMGWPRQAPGKERELVAGINGGTTTYYADSVIGRFTISRDNAKNTVYLQRNSLKPDDTAVYNCAAGASRLTYYDYWGQGTQVTVSS”, the “polyreactivity (PSR sort gate)” value is recorded as “low polyreactivity”.

As for “QVQLQESGGGLVQAGGSLRLWCAASRNISGSSDLGWYHQAPGKEREFVASITSGGTTYYADSVKGRFTISRDNAKNTVYLQMNSLKPEDTAVYYCAVGDPADAEFGYWGQGTQVTVSS”, the “polyreactivity (PSR sort gate)” value was “low polyreactivity”.

Regarding “QVQLQESGGGLVQAGGSLRMSCAASGNIFDADIMGWYRQAPGKERELVASITDGRRTNYADSVKGRYTISRDSEKNTVYLQMNSLKPEDTAVYYCAAIAYPVVPTYFDYDSDYFHWGQGTQVTVIS”, the “polyreactivity (PSR sort gate)” value was “high polyreactivity”.

As for “QVQLQESGGGLVQAGGSLRMSCAASGTIVSEANMGWYRQAPGKERELVATIGQGSTTNYADSVKGRFTISRDNAKNTVYLQMNSLKPEETAVYYCAVVTVDPVGFVYWGQGTQVTVSS”, the “polyreactivity (PSR sort gate)” value is “low polyreactivity”.

With “QVQLQESGGGLVQAGGSLRPRCAAGGTIFVSVNMGWYRHAPGEELEFVASITQGATTNYADSLIGRFTISRDNAKNTVYLQMNCQNQEDTAVYYCAVHESGGITFTYWGQGTQVTVSS”, the “polyreactivity (PSR sort gate)” value is “high polyreactivity”.

“QVQLQESGGGLVQAGGSLRPSCAASGSISDGVPMGWYRQAPGEERELVATTVLGATTNYADSVKGRFTISRGNAKNTVYLQMNSLKPEETEVYYCAAPLRYDKGFSYWGQGTQVTVSS”: the “polyreactivity (PSR sort gate)” value is reported as “low polyreactivity”.

As for “QVQLQESGGGLVQAGGSLRQSYAASGYIFPSLAMGWYRQAPGKEREFVAAIGRGSTNNYADSVKGRFTISRDNAKNTAYQQMISLKPEDTAVYYCAAAASPLTRHLYWGQGTQVSVSS”, the “polyreactivity (PSR sort gate)” value is recorded as “low polyreactivity”.

Take “QVQLQESGGGLVQAGGSMRLSCAASGSISELRPMGWYRQAPGKERELVAGISTGGSTNYADSVKGRFTISRDNAKNTVYLQMNSLKPEDTAVYYCAAALSNVRNVRSPYDYWGQGTQVTVSS”: the “polyreactivity (PSR sort gate)” value is recorded as “high polyreactivity”.

“QVQLQESGGGLVQAGGTLRLSCAANGNISYSNPMGWYRQPPGKEREFVASINPGSTTNYMDSVKGRFTISRDNAKNTVYLQMNSLKPEDTAVYYCNSVFFKSRQGQMYYWGQGSQVTVSS”: the “polyreactivity (PSR sort gate)” value is “high polyreactivity”.

As for “QVQLQESGGGLVQASGSIFHEPNMGWHRQAPGKERELVATISDGAITNYADSVKGRFTISRDNAKNTVYLQMNSLKPEDTAVYYCAVVVHLYTDLRYWGQDTQVTVSS”, the “polyreactivity (PSR sort gate)” value is “high polyreactivity”.

In the case of “QVQLQESGGGLVQASGSIFHEPNMGWYRQAPGKERELVAGISSGANTYYADSVKGRFTISRDNAKNTVYLQMNSLKPEDTAVYHCAVVVHLYTDLRYWGQDTQVTVSS”, the “polyreactivity (PSR sort gate)” value is given as “high polyreactivity”.

As for “QVQLQESGGGLVQAVASLRLSCEASVSISSLDYMGWYRQASGKERELVAAIDNGSTTYYADSVKGRLTISRDNAKYTVYLQMNSLKPEDTAVYFCAAVRGRGGTHAYWGQGTQVTVSG”, the “polyreactivity (PSR sort gate)” value is “low polyreactivity”.

“QVQLQESGGGLVQAVGSLRLSCAASGNISDYYDMGWYRQAPGKERKFVAGIDFGAITNYADSVKGRFTISRDNAKNTEYLQMSSLKPEDTAVYYCAAGVYDWYAYDYWGQGTQVTVSS”: the “polyreactivity (PSR sort gate)” value is recorded as “high polyreactivity”.
